Reference: patent US20160009800A1 (XOMA US, published 2016)

Assays:
[1] = biological target: T1, human insulin receptor complexed with human insulin (human, UniProt P06213 28-1382; P01308 25-54; P01308 90-110); test: FACS, CHO-K1 human INSR cells, signal with insulin divided by signal without insulin
T1 construct: whole, on cells;mature; also called hINSR-hINS complex; INS/INSR complex
Experimental: (§1) Twenty five microliter aliquots of cells were plated into 96 well plates, mixed with 25 ul of antibody or PPE and incubated on ice for 1 h.
(§2) The cells were then washed once with FACS buffer and the binding of the antibody was detected by the addition of 25 ul of an appropriate fluorochrome-conjugated secondary antibody. […] After a final 15 min incubation on ice the cells were washed and the pellets resuspended in FACS buffer. The cells were analyzed on a FACSCAN™ (Becton-Dickinson, Milipitas, Calif.) and the data analyzed in both FLOWJO™ (Treestar, Ashland, Oreg.) and Microsoft Excel™.

[2] = biological target: T2, human insulin receptor (human, UniProt P06213 28-1382); test: FACS, serum-starved CHO-K1 cells expressing human INSR, no insulin
T2 construct: whole, on cells; Uncomplexed receptor on serum-starved cells (CHOK1 transfectants or IM-9); also called hINSR; INSR
Experimental: as §1, §2

[3] = biological target: T1, human insulin receptor complexed with …; test: FACS, serum-starved CHO-K1 cells expressing human INSR, with insulin
Experimental: as §1, §2

[4] = biological target: T3, mouse insulin receptor complexed with human insulin (mouse; human, UniProt P15208 28-1372; P01308 25-54; P01308 90-110); test: FACS, serum-starved CHO-K1 cells expressing mouse INSR, with insulin
T3 construct: whole, on cells;mature; also called muINSR/hINS complex
Experimental: as §1, §2

[5] = biological target: T4, mouse insulin receptor (mouse, UniProt P15208 28-1372); test: FACS, serum-starved CHO-K1 cells expressing mouse INSR, no insulin
T4 construct: whole, on cells; also called muINSR; mINSR

[6] = biological target: T3, mouse insulin receptor complexed with …; test: FACS, CHO-K1 mouse INSR cells, signal with insulin divided by signal without insulin
[7] = biological target: T4, mouse insulin receptor; test: FACS, serum-starved CHO-K1 cells expressing mouse INSR, no insulin [cont'd]
Experimental: as §1, §2

[8] = biological target: T3, mouse insulin receptor complexed with …; test: FACS, serum-starved CHO-K1 cells expressing mouse INSR, with insulin [cont'd]
Experimental: as §1, §2

[9] = biological target: T3, mouse insulin receptor complexed with …; test: FACS, CHO-K1 mouse INSR cells, signal with insulin divided by signal without insulin [cont'd]
Experimental: as §1, §2

Binder | FACS area under log transformed data MFI ratio (+insulin/-insulin) [1] | FACS area under log transformed data MFI [2] | FACS area under log transformed data MFI [3] | FACS area under log transformed data MFI [4] | FACS area under log transformed data MFI [5] | FACS area under log transformed data MFI ratio (+insulin/-insulin) [6] | FACS area under log transformed data MFI [7] | FACS area under log transformed data MFI [8] | FACS area under log transformed data MFI ratio (+insulin/-insulin) [9]
Ab056 (antibody, IgG2, V domains shown, also called XPA.015.199) VH: QVQLVQSGSEVKKPGASVKVSCKASGYTFTNSYMHWVRQAPGQGLEWMGIINPSAGTSYAQKFQGRVTMTRDTSTSTVYMELSSLKSEDTAVYYCARDVGWLPGDYWGQGTLVTVSS VL: QSALTQPASVSESPGQSITISCTGTGSDIGTYNLVSWYQHHPGKAPKLMIYEVTKRPSGVSNRFSGSKSGNTASLTISGLQAEDEADYYCSSYTSSSTLYVFGTGTKLTVL | 0.84 | 1110 | 927 | – | – | – | – | – | –
Ab057 (antibody, IgG2, V domains shown, also called XPA.015.200) VH: QMQLVQSGAEVKKPGESLKISCKGYGYRFSDNWIGWVRQMPGRGLEWMGIIYPGDSETRYSPSFQGQVTISADKSISTAYLQWSSLKASDTAMYYCARHAPLAVAGMALGDWGQGTLVTVSS VL: QTVVTQEPSFSVSPGGTVTLTCGLTSGSVSTSYYPSWYQQTPGQAPRMLVHSTSTRYSGVPDRFSGSILGNKAALTITGAQADDESDYYCALYMGGGIYVFGGGTQLTVL | – | – | – | 250 | 409 | 0.61 | – | – | –
Ab050 (antibody, IgG2, V domains shown, also called XPA.015.193) VH: QVQLVQSGAELKKPGATVKISCKVSGYTFGDYHMHWVKQAPGKGLEWMGLVDPENGETEYGEKFQDRITMAADTSTDTAYMELSSLRSEDTAVYYCARSPSSSGYFRVDGFDIWGQGTMVTVSS VL: NFMLTQPHSVSESPGKTVSISCTGSSGSIGSNYVQWYQQRPGSAPTTVIYEDNQRPSGVPDRFSGSIDSSSNSASLTISGLKTEDEADYYCQSYYNSNVVFGGGTKLTVL | – | 252 | – | 170 | 424 | 0.4 | – | – | –
Ab054 (antibody, IgG2, V domains shown, also called XPA.015.197) VH: not shown VL: QSALTQPRSVSESPGKTVTISCTGSGGSIGSNYVQWYQQRPGSAPTTVIFEDNRRPSGVPDRFSGSIHSSSNSASLTISGLKTEDEADYYCQSYVGTIVVFGGGTKVTVL | 0.32 | 1130 | 356 | 519 | 1030 | 0.51 | – | – | –
Ab060 (antibody, IgG2, V domains shown, also called XPA.015.207) VH: QMQLVQSGAEVKKPGSSVKVSCKASGGTFSSYAISWVRQAPGQGLEWMGIINPSGGSTSYAQKFQGRVTMTRDRSTSTVYMELSSLTSEDTAVYYCVRDNHGWSFDYWGQGTLVTVSS VL: QAVLTQPASLSASPGESARLTCTLPSDINVRYYNIYWYQQKPGSPPRYLLYYYSDSNKDQGSGVPSRFSGSKDVSTNTGILVISGLQSEDEAEYYCMTWSSNGSGVFGGGTQLTVL | 0.67 | 460 | 308 | 388 | 210 | 1.85 | – | – | –
Ab052 (antibody, IgG2, V domains shown, also called XPA.015.195) VH: EVQLVQSGAEVKKPGESLKISCKGSGYRFTSYWIGWVRQMPGRGLEWMGIIYPGDSDTRYSPSFQGQVTISVDKSISTAYLQWSSLKASDTAMYYCATHHASGRGLDPWGQGTLVTVSS VL: QAMLTQPASLSASPGASASLTCTLRSGINVVAYNIYWYRQKSGSPPQSVLRYKSDSDSERDSGVPSRFSGSKDVSANAGILLISGLQSEDEADYYCLIWHNSAWVFGGGTQLTVL | – | 445 | – | 397 | 892 | 0.45 | – | – | –

The next lines start with the values.

FACS area under log transformed data MFI ratio (+insulin/-insulin) [1] | FACS area under log transformed data MFI [2] | FACS area under log transformed data MFI [3] | FACS area under log transformed data MFI [4] | FACS area under log transformed data MFI [5] | FACS area under log transformed data MFI ratio (+insulin/-insulin) [6] | FACS area under log transformed data MFI [7] | FACS area under log transformed data MFI [8] | FACS area under log transformed data MFI ratio (+insulin/-insulin) [9] | Binder
0.69 | 1540 | 1060 | 786 | 1280 | 0.61 | – | – | – | Ab067 (antibody, V domains shown, also called XPA.015.216) VH: EVQLVQSGAEVKKPGSSVKVSCKASGGTFSSYAISWVRQAPGQGLEWMGGIIPIFGTANYAQKFQGRVTITADESTSTAYMELSSLRSEDTAVYYCARASGDYDFWSGYYGAEYFQHWGQGTLVTVSS VL: not shown
0.74 | 1710 | 1270 | 813 | 1020 | 0.8 | – | – | – | Ab064 (antibody, IgG2, V domains shown, also called XPA.015.213) VH: QVQLVQSGAEVKKPGESLKISCKGSGFSFPSYWIGWVRQMPGKGLELVGIIYPGDSDIRYSPSFQGQVTISADTSISTVYLQWSSLQTTDTATYYCARGGFNWFDPWGQGTLVTVSS VL: QAVVTQEPSLTVSPGGTVTLTCASSTGAVTSGYYPNWFQQKPGQAPRALIYSTSNKHSWTPARFSGSLLGGKAALTLSGVQPEDEAEYYCLLYYGGAQPWVFGGGTQLTVL
– | – | – | – | – | – | 189 | 125 | 0.66 | Ab081 (antibody, IgG2, V domains shown, Negative modulator; also called XPA.015.247) VH: EVQLVETGGGVVQPGRSLRLSCAASGFTFSSYAMHWVRQAPGKGLEWVAVISYDGSNKYYADSVKGRFTISRDNSKNTLYLQMNSLRAEDTAVYYCARHEWGFGMDVWGQGTTVTVSS VL: DVVMTQSPLSLSVTLGQPASISCRSSLSLVYGDENTYLNWFQQRPGQSPRRLLYKVSDRDSGVPDRFSGSGSGTDFTLKISRVEADDVGVYYCMQGTHWPYTFGQGTKLEIK
– | 205 | – | 177 | 483 | 0.37 | – | – | – | Ab065 (antibody, IgG2, V domains shown, also called XPA.015.214) VH: QVQLVQSGAEVKKPGESLKISCKGSGYSFTSYWIGWVRQMPGKGLEWMGIIYPGDSDTRYSPSFQGQVTISADKSISTAYLQWSSLKASDTAMYYCARHELGIDYWGQGTLVTVSS VL: QAGLTQPPSVSKGLRQTATLTCTGDNNIVGDQGAAWLQQHQGHPPKLLSFRNNSRPSGISERFSASRSRNTASLTITRLQPEDAADYYCSAWDSFLSAWVFGGGTKLTVL
0.71 | 943 | 674 | 733 | 1020 | 0.72 | – | – | – | Ab063 (antibody, IgG2, V domains shown, also called XPA.015.212) VH: QVQLQQSGPGLVKPSQTLSLTCAISGDSVSSNSAAWNWIRQSPSRGLEWLGRTYYRSKWYTDYALSVKSRITINPDTSKNQFSLHLNSVTPEDTAVYYCAREGWLGYFDFWGQGTLVTVSS VL: SSELTQPPSVSVAPGKTATITCGGDNIASKSVHWYQQKPGQAPVLVLYDDSVRPSDIPERFSGSNSANTATLTLTRVEAGDEGEYYCQVWDVRSDHPFFGPGTKVTVL
0.74 | 1560 | 1160 | 1140 | 1520 | 0.76 | – | – | – | Ab066 (antibody, IgG2, V domains shown, also called XPA.015.215) VH: EVQLVQSGAEVKKPGSSVKVSCKASGGTFSSYAISWVRQAPGQGLEWMGGIIPIFGTANYAQKFQGRVTITADKSTSTAYMELSRLRSDDTAVYYCARDASYGGNSEGFDYWGQGTLVTVSS VL: SSELTQDPAVSVAVGQSVRITCQGDSLKNFYATWYQQRPGQAPLLVIFGKNNRPSGIPDRFSGSSSGNTASLTVTGAQADDEADYYCNSPDSSNKLVVFGGGTKLTVL
– | 357 | – | 383 | 642 | 0.6 | – | – | – | Ab069 (antibody, IgG2, V domains shown, also called XPA.015.222) VH: EVQLVQSGAEVKKPGESLKISCKGSGYSFTSYWIGWVRQMPGKGLEWMGIIYPGDSDTRYSPSFQGQVTISADKSISIAYLQWSSLKASDTAMYYCARLGRGYYGMDVWGQGTTVTVSS VL: SSELTQDPAVSVALGQTVRITCQGDSLRSYYASWYQQKPGQAPVLVIYGKNNRPSGIPDRFSGSRSGNTASLTITGAQAEDEADYYCNSRDSSGNHVVFGGGTKVTVL
